Numbering of substitutions follows the chain as printed. Names may count otherwise.
B1: Streptomyces coelicolor FtsZ, C-terminal His-tag fusion (natural protein, UniProt P45500 1-399, looked up)
chain: MAAPQNYLAVIKVIGVGGGGVNAINRMIEVGLKGVEFIAINTDAQALLMSDADVKLDVGRELTRGLGAGANPAVGRKAAEDHREEIEEVLKGADMVFVTAGEGGGTGTGGAPVVANIARSLGALTIGVVTRPFTFEGRRRANQAEDGIAELREEVDTLIVIPNDRLLSISDRQVSVLDAFKSADQVLLSGVQGITDLITTPGLINLDFADVKSVMSEAGSALMGIGSARGDDRAVAAAEMAISSPLLEASIDGARGVLLSISGGSDLGLFEINEAAQLVSEAAHPEANIIFGAVIDDALGDEVRVTVIAAGFDGGQPPSKRDNVLGSSSAKREEPTPARPSESRPSFGSLGSVKPKEEPEPAPVPEPVADLPVSPPPVPPSRTYSDSAAEELDVPDFLK
notes: FtsZ of Streptomyces coelicolor, codon-optimised ftsZ cloned into pET28a; Forms polymers with GTP; source: E. coli Rosetta 2 (DE3) pLysS, purified
B2: Streptomyces coelicolor SsgB, wild type, His6-tagged (natural protein, UniProt Q9L268 1-137, looked up)
chain: MNTTVSCELHLRLVVSSESSLPVPAGLRYDTADPYAVHATFHTGAEETVEWVFARDLLAEGLHRPTGTGDVRVWPSRSHGQGVVCIALSSPEGEALLEAPARALESFLKRTDAAVPPGTEHRHFDLDQELSHILAES
notes: SsgB of Streptomyces coelicolor, entire coding region, 137 aa native polypeptide; expressed from pET28a as a 157 aa fusion protein; Trimer in the crystal, mainly monomer by SEC; The last 13 residues are not modelled in the structure; also called ScSsgB; wild-type SsgB; source: E. coli Rosetta 2 (DE3) pLysS, purified
B3: SsgB E120A, His6-tagged (natural protein, Streptomyces coelicolor, UniProt Q9L268 1-137, looked up)
chain: B2 chain with E120A
notes: SsgB of Streptomyces coelicolor, entire coding region (137 aa), point mutant E120A, expressed in the same way as wild type; also called SsgB variant E120A; source: E. coli Rosetta 2 (DE3) pLysS, purified
B4: SsgB-E120G, His6-tagged (natural protein, Streptomyces coelicolor, UniProt Q9L268 1-137, looked up)
chain: B2 chain with E120G
notes: SsgB of Streptomyces coelicolor, entire coding region (137 aa), point mutant E120G, expressed in the same way as wild type; also called SsgB variant E120G; source: E. coli Rosetta 2 (DE3) pLysS, purified

Tests used:
[1] = biological target: the molecule itself; test: co-sedimentation; co-pelleting assay: purified FtsZ with or without equimolar SsgB or its mutants, 15 µM final; pre-spun 50 k r.p.m. 30 min; 2 mM MgCl2 and GTP added, 10 min at 30°C; centrifuged 65 k r.p.m. at 20°C for 30 min; supernatants and pellets on SDS-PAGE
[2] = biological target: Streptomyces coelicolor SsgB, wild type, His6-tagged (Streptomyces coelicolor) (UniProt Q9L268); test: crystal structure; tetragonal crystals, sitting-drop vapour diffusion at 18°C; 0.2 M sodium chloride, 0.1 M sodium/potassium phosphate pH 6.2, 50% PEG200; 2.1 Å; eight molecules per asymmetric unit
[3] = biological target: B1; test: co-sedimentation; co-pelleting assay: purified FtsZ with or without equimolar SsgB or its mutants, 15 µM final; pre-spun 50 k r.p.m. 30 min; 2 mM MgCl2 and GTP added, 10 min at 30°C; centrifuged 65 k r.p.m. at 20°C for 30 min; supernatants and pellets on SDS-PAGE; conditions: both partners purified

Row | stoichiometry N [2] | binding result [3] | Binder | binding result [1]
1 |  |  | B1 | binds
2 | 3 | binds | B2 | 
3 |  | binds | B3 | 
4 |  | binds | B4 | 
